Test results as given in paper PMC7194074, “A Trichome-Specific, Plastid-Localized Tanacetum cinerariifolium Nudix Protein Hydrolyzes the Natural Pyrethrin Pesticide Biosynthetic Intermediate trans-Chrysanthemyl Diphosphate” (Frontiers in Plant Science, 2020).

Test system: CC(C)=C[C@@H]1[C@@H](COP(=O)(O)OP(=O)(O)O)C1(C)C
Assay: purified protein
Details: 100 mM Tris pH 7.5, 5 mM MgCl2, CPP 0.1 to 5 μM, 5 min, 1 μM enzyme stated for the general reactions

TcNudix1 (Tanacetum cinerariifolium)
Km: 0.137 ± 0.05 µM
